# From patent US20100190698A1 (PHYLOGICA, published 2010)
# Target: c-Jun (Jun dimers as AP-1 moieties, endogenous in K562/AP1-Luc cells) (UniProt P05412 1-331)
# Assay: cell-based or functional assay
# Sequence of c-Jun (Jun dimers as AP-1 moieties, endogenous in K562/AP1-Luc cells) (P05412 whole entry): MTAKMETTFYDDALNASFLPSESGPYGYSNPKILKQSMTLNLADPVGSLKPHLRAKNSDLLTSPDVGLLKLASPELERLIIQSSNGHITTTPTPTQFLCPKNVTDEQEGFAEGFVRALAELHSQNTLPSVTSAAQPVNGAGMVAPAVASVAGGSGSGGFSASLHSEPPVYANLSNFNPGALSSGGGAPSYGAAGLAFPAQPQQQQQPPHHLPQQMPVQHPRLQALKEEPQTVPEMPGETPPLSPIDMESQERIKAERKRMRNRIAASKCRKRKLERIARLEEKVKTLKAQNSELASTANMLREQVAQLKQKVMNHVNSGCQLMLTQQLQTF
row,Binder,"AP-1 reporter activity (luciferase, K562/AP1-Luc cells), of the level observed for the control sample"
1,RSDYKDDDDKGLQGRRRQGYQSIKP [PYC36],~44 % of control
2,RSDYKDDDDKAYQSIRSGGIESSSKRER [PYC35],~35 % of control

# Results, then the binder that gave them:
row,"AP-1 reporter activity (luciferase, K562/AP1-Luc cells), of the level observed for the control sample",Binder
1,~48 % of control,RSDYKDDDDKVSINQEHHRLLPL [PYC41]
2,~47 % of control,RSDYKDDDDKGLQGRRQPGQQPQGRWSGRALPAHR [PYC38/39]
